From patent US20030092619A1

Target: full length STAT6 (human) (UniProt P42226)
Test: cell-based or functional assay

full length STAT6 (human), sequence (P42226 2-847): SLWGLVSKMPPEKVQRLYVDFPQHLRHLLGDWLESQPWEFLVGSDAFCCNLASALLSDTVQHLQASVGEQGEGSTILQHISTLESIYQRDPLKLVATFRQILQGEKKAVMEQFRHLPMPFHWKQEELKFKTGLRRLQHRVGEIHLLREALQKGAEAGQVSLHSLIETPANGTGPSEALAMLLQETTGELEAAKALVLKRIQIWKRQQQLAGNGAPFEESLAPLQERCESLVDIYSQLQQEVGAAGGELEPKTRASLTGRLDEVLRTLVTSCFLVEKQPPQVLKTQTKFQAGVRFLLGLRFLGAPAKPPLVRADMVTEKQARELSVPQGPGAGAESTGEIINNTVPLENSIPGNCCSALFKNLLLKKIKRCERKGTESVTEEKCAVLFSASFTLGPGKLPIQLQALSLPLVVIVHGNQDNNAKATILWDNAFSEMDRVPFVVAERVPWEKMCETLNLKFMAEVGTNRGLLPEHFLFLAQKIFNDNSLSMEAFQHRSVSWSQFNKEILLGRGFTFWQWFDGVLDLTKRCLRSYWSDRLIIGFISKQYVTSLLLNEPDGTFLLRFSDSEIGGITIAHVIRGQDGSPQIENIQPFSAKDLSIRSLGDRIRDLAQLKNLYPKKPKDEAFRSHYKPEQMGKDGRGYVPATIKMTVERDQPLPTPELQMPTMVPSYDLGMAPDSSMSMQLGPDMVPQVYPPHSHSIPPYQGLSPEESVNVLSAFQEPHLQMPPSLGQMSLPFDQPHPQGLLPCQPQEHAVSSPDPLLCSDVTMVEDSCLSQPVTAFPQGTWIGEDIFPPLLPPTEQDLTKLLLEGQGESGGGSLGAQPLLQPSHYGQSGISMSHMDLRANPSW

luciferase reporter with multimerized STAT6 response elements, HepG2 cells, IL-4 induced: < 3 fold
Substance: NCoA-1 (nuclear coactivator 1), full length (from UniProt P70365 2-1447)
